In patent US20170037110A1 (IMMATICS BIOTECHNOLOGIES, published 2017):

B1: ALSEVDFQL (peptide)
peptide: ALSEVDFQL
B2: YLFDDPLSAV (peptide)
peptide: YLFDDPLSAV
B3: FLFATPVFI (peptide)
peptide: FLFATPVFI
B4: FLATSGTLAGI (peptide)
peptide: FLATSGTLAGI
B5: LLVEQPPLAGV (peptide)
peptide: LLVEQPPLAGV
B6: VQIHQVAQV (peptide)
peptide: VQIHQVAQV
B7: ALYETELADA (peptide)
peptide: ALYETELADA
B8: FVPPVTVFPSL (peptide)
peptide: FVPPVTVFPSL
B9: YIMEPSIFNTL (peptide)
peptide: YIMEPSIFNTL
B10: KVLSNIHTV (peptide)
peptide: KVLSNIHTV
B11: YLDFSNNRL (peptide)
peptide: YLDFSNNRL
B12: NLWDLTDASVV (peptide)
peptide: NLWDLTDASVV
B13: SLLEAVSFL (peptide)
peptide: SLLEAVSFL
B14: SVMEVNSGIYRV (peptide)
peptide: SVMEVNSGIYRV
B15: KIGDEPPKV (peptide)
peptide: KIGDEPPKV
B16: FLWNGEDSALL (peptide)
peptide: FLWNGEDSALL
B17: TLVLTLPTV (peptide)
peptide: TLVLTLPTV
B18: ALNPEIVSV (peptide)
peptide: ALNPEIVSV
B19: YLQELIFSV (peptide)
peptide: YLQELIFSV
B20: GLLDGGVDILL (peptide)
peptide: GLLDGGVDILL
B21: HLTEVYPEL (peptide)
peptide: HLTEVYPEL
B22: YLADPSNLFVV (peptide)
peptide: YLADPSNLFVV
B23: LLLDITPEI (peptide)
peptide: LLLDITPEI
B24: FLLAEDDIYL (peptide)
peptide: FLLAEDDIYL
B25: YQYPRAILSV (peptide)
peptide: YQYPRAILSV
B26: GIMEHITKI (peptide)
peptide: GIMEHITKI
B27: SLATAGDGLIEL (peptide)
peptide: SLATAGDGLIEL
B28: YMDAPKAAL (peptide)
peptide: YMDAPKAAL
B29: VLVSDGVHSV (peptide)
peptide: VLVSDGVHSV
B30: VLAYFLPEA (peptide)
peptide: VLAYFLPEA

The binders below were run against T1, HLA-A*02:01 (human) (assay: UV peptide exchange ELISA).
T1 construct: monomers captured on streptavidin plates; also called MHC class I
Text: Candidate peptides for T cell based therapies according to the present invention were further tested for their MHC binding capacity (affinity). The individual peptide-MHC complexes were produced by UV-ligand exchange, where a UV-sensitive peptide is cleaved upon UV-irradiation, and exchanged with the peptide of interest as analyzed. Only peptide candidates that can effectively bind and stabilize the peptide-receptive MHC molecules prevent dissociation of the MHC complexes. To determine the yield of the exchange reaction, an ELISA was performed based on the detection of the light chain (p2m) of stabilized MHC complexes.
96 well MAXISorp plates (NUNC) were coated over night with 2 μg/ml streptavidin in PBS at room temperature, washed 4× and blocked for 1 h at 37° C. in 2% BSA containing blocking buffer. […] Peptide-MHC monomers of the UV-exchange reaction were diluted 100 fold in blocking buffer. Samples were incubated for 1h at 37° C., washed four times, incubated with 2 μg/ml HRP conjugated anti-p2m for 1h at 37° C., washed again and detected with TMB solution that is stopped with […]. Absorption was measured at 450 nm.

First: B1
Second: B2
The peptide exchange yield of the first is higher: 50 to 75% for the first, 20 to 50% for the second.

Compared with B3, B4 is lower in peptide exchange yield: 50 to 75% for the first, 20 to 50% for the second.

B5 and B6 fall in the same range of peptide exchange yield: 50 to 75% for the first, 50 to 75% for the second.

B7 and B8 fall in the same range of peptide exchange yield: 20 to 50% for the first, 20 to 50% for the second.

First: B9
Second: B10
The peptide exchange yield of the first is higher: 50 to 75% for the first, 20 to 50% for the second.

Compared with B11, B12 is higher in peptide exchange yield: 20 to 50% for the first, 50 to 75% for the second.

B13 and B14 fall in the same range of peptide exchange yield: 50 to 75% for the first, 50 to 75% for the second.

First: B15
Second: B16
The peptide exchange yield of the first is lower: 20 to 50% for the first, 50 to 75% for the second.

First: B17
Second: B18
The peptide exchange yield of the first is higher: ≥ 75% for the first, 20 to 50% for the second.

B19 and B20 fall in the same range of peptide exchange yield: 50 to 75% for the first, 50 to 75% for the second.

B21 and B22 fall in the same range of peptide exchange yield: 50 to 75% for the first, 50 to 75% for the second.

B23 and B24 cannot be ordered by peptide exchange yield: ≥ 75% for the first, 50 to 75% for the second.

B25 and B26 cannot be ordered by peptide exchange yield: 50 to 75% for the first, ≥ 75% for the second.

B27 and B28 fall in the same range of peptide exchange yield: 20 to 50% for the first, 20 to 50% for the second.

B29 and B30 cannot be ordered by peptide exchange yield: 50 to 75% for the first, ≥ 75% for the second.
